In US20040086848A1 (University of Texas, published 2004):

T1: endogenous RANK of RAW264.7 cells (mouse, UniProt O35305 31-625)
T1 construct: whole, on cells; Immunoprecipitated from cell lysates with anti-RANK; The species follows from the mouse cell line
T1 sequence (looked up): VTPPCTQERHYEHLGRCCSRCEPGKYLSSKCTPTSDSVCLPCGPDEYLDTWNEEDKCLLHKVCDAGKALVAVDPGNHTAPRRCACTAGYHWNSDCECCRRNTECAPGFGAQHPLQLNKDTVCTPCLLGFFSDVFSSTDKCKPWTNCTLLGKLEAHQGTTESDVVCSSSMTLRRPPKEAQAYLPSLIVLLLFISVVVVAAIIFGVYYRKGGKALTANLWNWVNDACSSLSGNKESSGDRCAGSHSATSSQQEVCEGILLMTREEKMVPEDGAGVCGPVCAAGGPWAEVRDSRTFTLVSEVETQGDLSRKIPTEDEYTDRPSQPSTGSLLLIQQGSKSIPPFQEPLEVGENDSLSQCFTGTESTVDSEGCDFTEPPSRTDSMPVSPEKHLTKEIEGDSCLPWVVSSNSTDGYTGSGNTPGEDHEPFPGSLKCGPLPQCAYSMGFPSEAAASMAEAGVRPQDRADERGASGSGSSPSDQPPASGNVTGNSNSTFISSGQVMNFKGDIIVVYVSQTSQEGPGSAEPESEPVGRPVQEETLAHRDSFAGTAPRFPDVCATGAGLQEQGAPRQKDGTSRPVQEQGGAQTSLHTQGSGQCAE


Key:
[1] = molecular target: T1, endogenous RANK of RAW264.7 cells; assay: interaction with endogenous RANK in RAW cells (data not shown)
[2] = molecular target: the molecule itself; assay: gel filtration chromatography

Row | Binder | binding result [1] | binding result [2]
1 | RAIN mutant K90/91A (from pCMV3×FLAG-hRAIN, stably expressed in RAW cells) (other, human, UniProt Q96GX9 1-242, looked up, range 1-242; not shown: 3×FLAG tag of pCMV3×FLAG-14 at the C-terminus) MSGCDAREGDCCSRRCGAQDKEHPRYLIPELCKQFYHLGWVTGTGGGISLKHGDEIYIAPSGVQKERIQPEDMFVCDINEKDISGPSPSAALKKSQCTPLFMNAYTMRGAGAVIHTHSKAAVMATLLFPGREFKITHQEMIKGIKKCTSGGYYRYDDMLVVPIIENTPEEKDLKDRMAHAMNEYPDSCAVLVRRHGVYVWGETWEKAKTMCECYDYLFDIAVSMKKVGLDPSQLPVGENGIV | binds | binds
2 | RAIN mutant R194A (from pCMV3×FLAG-hRAIN, stably expressed in RAW cells) (other, human, UniProt Q96GX9 1-242, looked up, range 1-242; not shown: 3×FLAG tag of pCMV3×FLAG-14 at the C-terminus) MSGCDAREGDCCSRRCGAQDKEHPRYLIPELCKQFYHLGWVTGTGGGISLKHGDEIYIAPSGVQKERIQPEDMFVCDINEKDISGPSPSKKLKKSQCTPLFMNAYTMRGAGAVIHTHSKAAVMATLLFPGREFKITHQEMIKGIKKCTSGGYYRYDDMLVVPIIENTPEEKDLKDRMAHAMNEYPDSCAVLVRAHGVYVWGETWEKAKTMCECYDYLFDIAVSMKKVGLDPSQLPVGENGIV | binds | binds
